Substrate in data set [1]: O=C(CO)[C@@H](O)[C@H](O)[C@H](O)COP(=O)(O)O
The experiment in a line: Substrate Km determination, Lineweaver-Burk plot (GFAT-alpha). In kind it is biochemical, human. Conditions: other: extracts from transfected SF9 insect cells, other substrate at saturating levels. As for the experimental part:
(§1) FIG. 3 illustrates the effect of varying concentrations of the substrates glutamine and fructose 6-phosphate on the enzyme activity of GFAT-alpha and GFAT-beta. FIG. 3A is a graph illustrating incubation with 10 μl glutamine 200 mM+10 μl fructose 6-phosphate 3.125, 6.25, 12.5, 25, 50, 100, and 200 mM. FIG. 3B is a graph illustrating incubation with 10 μl fructose 6-phosphate 200 mM+10 μl glutamine 3.125, 6.25, 12.5, 25, 50, 100, and 200 mM. 10 μl of GFAT-alpha and 5 μl of GFAT-beta extracts from transfected SF9 insect cells are incubated with 1) 10 μl glutamine 200 mM+10 μl fructose 6-phosphate 3.125, 6.25, 12.5, 25, 50, 100, and 200 mM, and 2) 10 μl fructose 6-phosphate 200 mM+10 μl glutamine 3.125, 6.25, 12.5, 25, 50, 100, and 200 mM in an incubation media containing 10 μl PBS 10×, 10 μl EDTA 50 mM, 10 μl, DTT 10 mM and water to 100 μl. The plate is sealed with a Costar plate sealer and incubated for 60 minutes at 37° C. by floating on a water bath. Additional incubation mixture is kept on ice to add to standard and control samples. […] After a 20-minute incubation at 37° C., the OD is determined for each well at 585 nm. […]
(§2) FIG. 3C is a table illustrating the Km values of the substrates for the GFAT-alpha and GFAT-beta enzymes calculated from the data generated in FIGS. 3A and 3B. […]

Substrate in data set [2]: NC(=O)CC[C@H](N)C(=O)O
The description is as above. It counts as biochemical, human. Particulars: other: extracts from transfected SF9 insect cells, other substrate at saturating levels. The method, then: as §1, §2

B1: GFAT-alpha (Homo sapiens; I57T) (protein)
chain: MCGIFAYLNYHVPRTRREILETLIKGLQRLEYRGYDSAGVGFDGGNDKDWEANACKTQLIKKKGKVKALDEEVHKQQDMDLDIEFDVHLGIAHTRWATHGEPSPVNSHPQRSDKNNEFIVIHNGIITNYKDLKKFLESKGYDFESETDTETIAKLVKYMYDNRESQDTSFTTLVERVIQQLEGAFALVFKSVHFPGQAVGTRRGSPLLIGVRSEHKLSTDHIPILYRTGKDKKGSCNLSRVDSTTCLFPVEEKAVEYYFASDASAVIEHTNRVIFLEDDDVAAVVDGRLSIHRIKRTAGDHPGRAVQTLQMELQQIMKGNFSSFMQKEIFEQPESVVNTMRGRVNFDDYTVNLGGLKDHIKEIQRCRRLILIACGTSYHAGVATRQVLEELTELPVMVELASDFLDRNTPVFRDDVCFFLSQSGETADTLMGLRYCKERGALTVGITNTVGSSISRETDCGVHINAGPEIGVASTKAYTSQFVSLVMFALMMCDDRISMQERRKEIMLGLKRLPDLIKEVLSMDDEIQKLATELYHQKSVLIMGRGYHYATCLEGALKIKEITYMHSEGILAGELKHGPLALVDKLMPVIMIIMRDHTYAKCQNALQQVVARQGRPVVICDKEDTETIKNTKRTIKVPHSVDCLQGILSVIPLQLLAFHLAVLRGYDVDFPRNLAKSVTVE
notes: made in house; host or cells: SF9 insect cells (sonicated, centrifuged cell extract)
The term Km denotes the substrate concentration at which the rate is half of its maximum. As to B1, the Km in data set [1] is 1850 µM; in data set [2], 1490 µM.

Source of the values: patent US20050032145A1, “Methods for measuring activity of glutamine:fructose 6-phosphate amidotransferase and activity of inhibitors thereof” (priority 2002, published 2005).
